Patent US20090149339A1 (published 2009)
Ends that are not written are not given here. * marks the point of attachment. Biotin = O=C1N[C@H]2[C@H](CS[C@H]2CCCCC(=O)*)N1

B1: CD44 (long form) C-terminal PL peptide AA9L, biotinylated (peptide)
peptide: Biotin-QFMTADETRNLQNVDMKIGV
B2: CD95 (Apo-1/Fas) C-terminal PL peptide AA13L, biotinylated (peptide)
peptide: Biotin-KDITSDSENSNFRNEIQSLV
B3: Neurexin C-terminal PL peptide AA38L, biotinylated (peptide)
peptide: Biotin-SSAKSSNKNKKNKDKEYYV

Experiments:
[1] = target: T1, GST-prIL16 PDZ domain fusion protein (putative interleukin 16 precursor AA170-383; PDZ domains 1-2 of 2) (UniProt P08515 1-218 = GST); experiment: G assay
[2] = target: T2, GST-MPP1 PDZ domain fusion protein (55 Kd erythrocyte membrane protein AA101-186; PDZ domain 1 of 1) (UniProt P08515 1-218 = GST); experiment: G assay
[3] = target: T3, GST-MPP2 PDZ domain fusion protein (maguk p55 subfamily member 2 (DLG2) AA185-273; PDZ domain 1 of 1) (UniProt P08515 1-218 = GST); experiment: A/G assays
T3 construct: also called MMP2

[4] = target: T4, GST-KIAA0316 PDZ domain fusion protein (KIAA0316 AA197-284; PDZ domain 1 of 1) (UniProt P08515 1-218 = GST); experiment: A/G assays
T4 construct: also called K316

[5] = target: T5, GST-TAX2 PDZ domain fusion protein (human tax interaction protein 2 AA54-140; PDZ domain 1 of 1) (human, UniProt P08515 1-218 = GST); experiment: A/G assays
T5 construct: also called TX 2

[6] = target: T6, GST-41.8 kD PDZ domain fusion protein (hypothetical 41.8 kD protein AA4-85; PDZ domain 1 of 1) (UniProt P08515 1-218 = GST); experiment: A/G assays
T6 construct: also called hypoth

[7] = target: T7, GST-TAX43 PDZ domain fusion protein (human tax interaction protein 43 AA15-85; PDZ domain 1 of 1) (human, UniProt P08515 1-218 = GST); experiment: A/G assays
T7 construct: also called TX 43

[8] = target: T8, GST-RGS12 PDZ domain fusion protein (human regulator of G-protein signalling 12 AA35-103; PDZ domain 1 of 1) (human, UniProt P08515 1-218 = GST); experiment: A/G assays
T8 construct: also called RSG12

[9] = target: GST-MINT3 PDZ domain fusion protein (human MINT3 AA11-52; PDZ domain 1 of 1) (human, UniProt P08515 1-218 = GST); experiment: A/G assays
[10] = target: GST-LIM PDZ domain fusion protein (Human LIM protein AA29-112; PDZ domain 1 of 1) (human, UniProt P08515 1-218 = GST); experiment: A/G assays
[11] = target: GST-PTN-4 PDZ domain fusion protein (protein-tyrosine phosphatase meg1 AA774-862; PDZ domain 1 of 1) (UniProt P08515 1-218 = GST); experiment: A/G assays
[12] = target: T9, GST-SYN1a PDZ domain fusion protein (alpha1-syntrophin AA96-189; PDZ domain 1 of 1) (UniProt P08515 1-218 = GST); experiment: A/G assays
T9 construct: also called SYN 1 alpha; SYNTR 1 alpha

[13] = target: T10, GST-AF6 PDZ domain fusion protein (af-6 protein AA985-1077; PDZ domain 1 of 1) (UniProt P08515 1-218 = GST); experiment: A/G assays
[14] = target: GST-LIMK2 PDZ domain fusion protein (human LIM domain kinase 2 AA185-275; PDZ domain 1 of 1) (human, UniProt P08515 1-218 = GST); experiment: A/G assays
[15] = target: T11, GST-TAX40 PDZ domain fusion protein (human tax interaction protein 40 AA35-137; PDZ domain 1 of 1) (human, UniProt P08515 1-218 = GST); experiment: A/G assays
T11 construct: also called TX 40

[16] = target: T12, GST-KIAA0303 PDZ domain fusion protein (KIAA0303 AA652-742; PDZ domain 1 of 1) (UniProt P08515 1-218 = GST); experiment: A/G assays
T12 construct: also called K303

[17] = target: T13, GST-KIAA0559 PDZ domain fusion protein (KIAA0559 AA766-870; PDZ1 of 1) (UniProt P08515 1-218 = GST); experiment: A/G assays
T13 construct: also called K559

[18] = target: T14, GST-PSD95 PDZ domain fusion protein (human post-synaptic density protein 95 AA387-724; PDZ domains 1-3 of 3) (human, UniProt P08515 1-218 = GST); experiment: A/G assays
[19] = target: T15, GST-CASK PDZ domain fusion protein (CASK AA495-584; PDZ domain 1 of 1) (mouse, UniProt P08515 1-218 = GST); experiment: A/G assays
T15 construct: also called mCASK

[20] = target: T16, GST-TAX33 PDZ domain fusion protein (tax interaction protein 33 AA73-162; PDZ domain 1 of 1) (UniProt P08515 1-218 = GST); experiment: A/G assays
T16 construct: also called TX33

[21] = target: GST-NOS1 PDZ domain fusion protein (human neuronal nitric oxide synthase; PDZ domain 1 of 1) (human, UniProt P08515 1-218 = GST); experiment: A/G assays
[22] = target: T17, GST-DVL1 PDZ domain fusion protein (human dishevelled segment polarity protein homolog AA248-340); PDZ domain … (human, UniProt P08515 1-218 = GST); experiment: A/G assays
[23] = target: T18, GST-NeDLG PDZ domain fusion protein (presynaptic protein sao102, neuroendocrine-dlg; PDZ domains 1-2 of 3) (UniProt P08515 1-218 = GST); experiment: A/G assays
T18 construct: also called NeDLG1

[24] = target: T19, GST-CBP PDZ domain fusion protein (Cytohesin binding protein HE AA85-175; PDZ domain 1 of 1) (UniProt P08515 1-218 = GST); experiment: A/G assays
T19 construct: also called Prot

[25] = target: T20, GST-TIAM1 PDZ domain fusion protein (T-lymphoma invasion and metastasis inducing protein 1 AA1001-1088); PDZ 1 … (UniProt P08515 1-218 = GST); experiment: A/G assays
[26] = target: T1, GST-prIL16 PDZ domain fusion protein …; experiment: A/G assays
[27] = target: T2, GST-MPP1 PDZ domain fusion protein (55 …); experiment: A/G assays
[28] = target: T14, GST-PSD95 PDZ domain fusion protein …; experiment: G assay, peptide titrated on immobilized GST-PDZ, saturation fit (apparent affinity)
Description: (§1) FIGS. 2A and 2B show the Apparent Affinity Determination for PDZ-Ligand Interactions. […] The binding to GST alone (<0.2 OD units) was subtracted from the binding to the fusion proteins to obtain the signal at each peptide concentration.

[29] = target: T18, GST-NeDLG PDZ domain fusion protein …; experiment: as above
Description: as §1

[30] = target: T15, GST-CASK PDZ domain fusion protein …; experiment: G assay
[31] = target: T18, GST-NeDLG PDZ domain fusion protein …; experiment: G assay
[32] = target: T6, GST-41.8 kD PDZ domain fusion protein …; experiment: A assay
[33] = target: T7, GST-TAX43 PDZ domain fusion protein …; experiment: A assay
[34] = target: T8, GST-RGS12 PDZ domain fusion protein …; experiment: A assay
[35] = target: T1, GST-prIL16 PDZ domain fusion protein …; experiment: A assay
[36] = target: T9, GST-SYN1a PDZ domain fusion protein …; experiment: A assay
[37] = target: T10, GST-AF6 PDZ domain fusion protein (af-6 …); experiment: A assay
[38] = target: T11, GST-TAX40 PDZ domain fusion protein …; experiment: A assay
[39] = target: T2, GST-MPP1 PDZ domain fusion protein (55 …); experiment: A assay
[40] = target: T17, GST-DVL1 PDZ domain fusion protein …; experiment: A assay
[41] = target: T20, GST-TIAM1 PDZ domain fusion protein …; experiment: A assay
[42] = target: T14, GST-PSD95 PDZ domain fusion protein …; experiment: A and G assays

T19 sequence (P08515 1-218, tags or fused parts left off): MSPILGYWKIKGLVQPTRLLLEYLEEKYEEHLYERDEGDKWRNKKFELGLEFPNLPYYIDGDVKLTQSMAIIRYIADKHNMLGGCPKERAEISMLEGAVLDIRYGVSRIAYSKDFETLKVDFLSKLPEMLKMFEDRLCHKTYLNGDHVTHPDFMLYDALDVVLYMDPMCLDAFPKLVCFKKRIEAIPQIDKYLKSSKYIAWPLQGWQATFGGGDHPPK
T18 sequence (P08515 1-218, tags or fused parts left off): as above
T14 sequence (P08515 1-218, tags or fused parts left off): as above
T20 sequence (P08515 1-218, tags or fused parts left off): as above
T2 sequence (P08515 1-218, tags or fused parts left off): as above
T15 sequence (P08515 1-218, tags or fused parts left off): as above
T5 sequence (P08515 1-218, tags or fused parts left off): as above
T7 sequence (P08515 1-218, tags or fused parts left off): as above
T3 sequence (P08515 1-218, tags or fused parts left off): as above
GST-MINT3 PDZ domain fusion protein (human MINT3 AA11-52; PDZ domain 1 of 1), sequence (P08515 1-218, tags or fused parts left off): as above
T1 sequence (P08515 1-218, tags or fused parts left off): as above
T11 sequence (P08515 1-218, tags or fused parts left off): as above
GST-NOS1 PDZ domain fusion protein (human neuronal nitric oxide synthase; PDZ domain 1 of 1), sequence (P08515 1-218, tags or fused parts left off): as above
T13 sequence (P08515 1-218, tags or fused parts left off): as above
GST-PTN-4 PDZ domain fusion protein (protein-tyrosine phosphatase meg1 AA774-862; PDZ domain 1 of 1), sequence (P08515 1-218, tags or fused parts left off): as above
T9 sequence (P08515 1-218, tags or fused parts left off): as above
T17 sequence (P08515 1-218, tags or fused parts left off): as above
T8 sequence (P08515 1-218, tags or fused parts left off): as above
GST-LIM PDZ domain fusion protein (Human LIM protein AA29-112; PDZ domain 1 of 1), sequence (P08515 1-218, tags or fused parts left off): as above
T10 sequence (P08515 1-218, tags or fused parts left off): as above
T4 sequence (P08515 1-218, tags or fused parts left off): as above

| Binder | binding result [3] | binding result [4] | binding result [5] | binding result [7] | binding result [8] | binding result [9] | binding result [10] | binding result [11] | binding result [12] | binding result [13] | binding result [14] | binding result [15] | binding result [16] | binding result [17] | binding result [19] | binding result [20] | binding result [21] | binding result [22] | binding result [24] | binding result [25] | also measured |
| --- | --- | --- | --- | --- | --- | --- | --- | --- | --- | --- | --- | --- | --- | --- | --- | --- | --- | --- | --- | --- | --- |
| B1 | no binding | no binding | no binding | no binding | no binding | no binding | no binding | no binding | no binding | no binding | no binding | no binding | no binding | no binding | no binding | no binding | no binding | no binding | no binding | no binding | binding result [1]: binds; binding result [2]: binds; binding result [6]: no binding; binding result [18]: no binding; binding result [23]: no binding |
| B2 | no binding | no binding | no binding | no binding | no binding | no binding | no binding | no binding | no binding | no binding | no binding | no binding | no binding | no binding | no binding | no binding | no binding | no binding | no binding | no binding | binding result [26]: no binding; binding result [27]: no binding; Kd [28]: 85 µM; Kd [29]: 54 µM |
| B3 | no binding | no binding | no binding | – | – | no binding | no binding | no binding | – | – | no binding | – | no binding | no binding | – | no binding | no binding | – | no binding | – | binding result [30]: binds; binding result [31]: binds; binding result [32]: binds; binding result [33]: binds; binding result [34]: binds; binding result [35]: binds; binding result [36]: binds; binding result [37]: binds; binding result [38]: binds; binding result [39]: binds; binding result [40]: binds; binding result [41]: binds; binding result [42]: binds |
